The target in the test is T1, His-REV7 (human, UniProt Q9UI95 1-211).
T1 construct: REV7 (MAD2L2), human; amplified from REV7 cDNA with primers from the start codon to the stop codon, cloned into pETDuet-1; Cloned into pETDuet-1 (SalI-NotI); also called His-REV7 fusion protein; source: E. coli, purified
In words: pull-down; GST-fusion REV3L fragment, His-REV7 and Glutathione-Sepharose 4B beads, 4°C for 4 h in 500 μl of 0.1B; blot with anti-His and anti-GST. Particulars: both partners purified.

T1 sequence (Q9UI95 whole entry, the tested form may be a part): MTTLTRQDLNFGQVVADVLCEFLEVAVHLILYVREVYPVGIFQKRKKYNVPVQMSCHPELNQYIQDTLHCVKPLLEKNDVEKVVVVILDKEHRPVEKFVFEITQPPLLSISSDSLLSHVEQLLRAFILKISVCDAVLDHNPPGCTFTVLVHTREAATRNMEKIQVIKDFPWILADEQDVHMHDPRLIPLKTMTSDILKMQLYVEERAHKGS

B1: GST-REV3L 1847–1898 (domain or fragment, human, UniProt O60673 1847-1898, looked up)
chain: MLTPTPDSSPRSTSSPSQSKNGSFTPRTANILKPLMSPPSREEIMATLLDHD
notes: Cloned into pGEX6P-1 (GE Healthcare); also called positive control; source: E. coli, purified
Turning to B1, the binding result is recorded as “binds”.

B2: GST-REV3L 1974–2025 (domain or fragment, human, UniProt O60673 1974-2025, looked up)
chain: GVVNKGSSNSPKMVEDKKIVIMPCKCAPSRQLVQVWLQAKEEYERSKKLPKT
notes: Cloned into pGEX6P-1 (GE Healthcare); source: E. coli, purified
For the molecule B2, the binding result is given as “binds”.

Source of the values: PMC4333420, “REV7 is essential for DNA damage tolerance via two REV3L binding sites in mammalian DNA polymerase ζ” (Nucleic Acids Research, 2015).
